Residue numbers refer to the chain shown, from its start.
B1: EutL-strep (natural protein, S. Typhimurium LT2, UniProt P0A1C9 1-219, looked up)
chain: MPALDLIRPSVTAMRVIASVNDGFARELKLPPHIRSLGLITADSDDVTYIAADEATKQAMVEVVYGRSLYAGAAHGPSPTAGEVLIMLGGPNPAEVRAGLDAMVASIENGAAFQWANDAENTAFLAHVVSRTGSYLSSTAGIALGDPMAYLVAPPLEATFGIDAAMKSADVQLVTYVPPPSETNYSAAFLTGSQAACKAACNAFTDAVLDIARNPVQRA
notes: shell protein EutL of S. Typhimurium LT2; the eutL gene was inserted into pET-22b (+); not shown: Strep tag, C-terminal, kept
B2: EutM-his (natural protein)
chain: MEALGMIETRGLVALIEASDAMVKAARVKLVGVKQIGGGLCTAMVRGDVAACKAATDAGAAAAQRIGELVSVHVIPRPHGDLEEVFPISFKGDSNI
modifications: dye on the His tag (His-tagged target proteins were labelled with dyes)
notes: shell protein EutM of S. Typhimurium LT2; the eutM gene was inserted into pET-22b (+); source: E. coli BL21(DE3), purified (Ni-NTA, gel filtration); not shown: His tag, C-terminal, kept
B3: EutC^1–20 encapsulation peptide (peptide)
peptide: MDQKQIEEIVRSVMASMGQD
notes: EutC of S. Typhimurium LT2, N-terminal encapsulation peptide, residues 1-20; also called EutC peptide; EP of EutC; source: synthetic peptide (GenicBio)

How the values were obtained:
Conditions in all cases: both partners purified
EutQ-his = molecular target: T1, EutQ-his (S. Typhimurium LT2, UniProt Q9ZFV5 1-229, dye on the His tag (His-tagged target proteins were labelled with dyes)); assay: MST; His-tagged target protein labelled with dye, 0.25 μM; unlabelled strep-tagged protein in twofold dilution series (EutL up to 24 μM, EutQ up to 108 μM); Monolith NT.115, 25°C, 60% excitation power
T1 construct: EutQ of S. Typhimurium LT2; the eutQ gene was inserted into pET-22b (+); source: E. coli BL21(DE3), purified (Ni-NTA, gel filtration); not shown: His tag, C-terminal, kept
T1 sequence (looked up): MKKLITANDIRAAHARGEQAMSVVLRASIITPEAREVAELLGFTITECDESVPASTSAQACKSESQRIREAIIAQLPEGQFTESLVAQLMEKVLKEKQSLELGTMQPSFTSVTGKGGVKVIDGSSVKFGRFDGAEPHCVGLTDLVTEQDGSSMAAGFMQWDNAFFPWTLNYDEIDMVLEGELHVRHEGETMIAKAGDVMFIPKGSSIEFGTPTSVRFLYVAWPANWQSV

EutL-strep = molecular target: B1; assay: as above
EutQ-strep = molecular target: T2, EutQ-strep (S. Typhimurium LT2, UniProt Q9ZFV5 1-229); assay: as above
T2 construct: EutQ of S. Typhimurium LT2; the eutQ gene was inserted into pET-22b (+); source: E. coli BL21(DE3), purified (Strep-tag XT, gel filtration); not shown: Strep tag, C-terminal, kept
T2 sequence: T1 sequence (looked up)

EutQ (residues 1 to 229) = molecular target: T3, EutQ (residues 1 to 229) (S. Typhimurium LT2, UniProt Q9ZFV5 1-229); assay: ITC; 20 μM protein in the cell, 200 to 400 μM peptide in the syringe; 19 injections, 25°C; 20 mM Na2HPO4, 20 mM NaCl, pH 6.5
T3 construct: About 25 kDa per monomer, about 50 kDa dimer by SEC-MALS; Uniformly 15N-labelled for NMR; also called full-length EutQ; WT EutQ; source: E. coli BL21 (DE3) star, purified (His-trap, SEC on S200 Superdex)
T3 sequence: T1 sequence (looked up)

[1] = molecular target: T4, EutQ N-terminal domain fused with GB1 at its C terminus (EutQ^1–99-GB1) (S. Typhimurium LT2, UniProt Q9ZFV5 1-99); assay: as above
T4 construct: EutQ of S. Typhimurium LT2, N-terminal region, residues 1-99 (helices H1 to H4); Cloned into pETM11; Order of the chain: EutQ 1-99, hexahistidine tag, GB1; Uniformly 15N-labelled (15N, 13C for assignment) for NMR; also called N-terminal region of EutQ; source: E. coli BL21 (DE3) star, purified (His-trap, SEC on S200 Superdex)
T4 sequence: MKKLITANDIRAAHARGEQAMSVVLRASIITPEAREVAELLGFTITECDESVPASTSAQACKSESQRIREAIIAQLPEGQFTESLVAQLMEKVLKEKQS

EutQ Q75A = molecular target: T5, EutQ Q75A (S. Typhimurium LT2, UniProt Q9ZFV5 1-229, Q75A); assay: ITC; point mutants of EutQ against EutC^1–20 (figs. S25 and S26); the method is not given, the Kd is compared with the ITC Kd of WT EutQ
T5 construct: EutQ of S. Typhimurium LT2 with the point mutation Q75A; also called Q75A mutant
T5 sequence: T1 sequence (looked up) with Q75A

Binder: B1
- binding result (EutQ-his): binds

Binder: B2
- binding result (EutL-strep): binds
- binding result (EutQ-strep): binds

Binder: B3
- Kd (EutQ (residues 1 to 229)): 6.35 µM
- dH (EutQ (residues 1 to 229)): -9.24 ± 0.01 kcal/mol
- stoichiometry N (EutQ (residues 1 to 229)): ~2
- Kd [1]: 7.6 µM
- dH [1]: -9.63 ± 0.48 kcal/mol
- stoichiometry N [1]: ~1
- Kd (EutQ Q75A): 21.5 µM
